Measurements published in the supplement of paper PMC10724198.
± gives the standard deviation of the averaged measurements.

Tested on: Saccharomyces cerevisiae
Assay: protein stability index of tFT-peptide fusion (C-terminal peptide) (PSI (0-1 scale)); higher = more stable (slower turnover)
Conditions: temperature: 30 C
Method: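 MPS profiling in S. cerevisiae of the yeast C-terminome library: the last 12 aa of each annotated ORF are fused to the C-terminus of a sfGFP-mCherry timer, after a GGGS linker. Cells are FACS-sorted into 8 mCherry/sfGFP bins and deep-sequenced. PSI runs from 0 (unstable) to 1 (stable); wild type and das1Δ backgrounds, two technical replicates each.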

[1] = genetic background: das1 deletion

| Sequence | protein stability index [1] | protein stability index (genetic background: wild type) |
| --- | --- | --- |
| CGGKRNLQRNNF [YLR149C-A C-terminal 12 aa] | 0.703 ± 0.017 | 0.6759 ± 0.0037 |
| ISSKSIPSVDDK [YIL071W-A C-terminal 12 aa] | 0.677 ± 0.025 | 0.706 ± 0.067 |
| RTTFRTLSSYGK [YHL041W C-terminal 12 aa] | 0.713 ± 0.0099 | 0.648 ± 0.037 |
| IGGLKREAEASA [GDH2 C-terminal 12 aa] | 0.695 ± 0.041 | 0.719 ± 0.0075 |
| LSLRSLQIMGRN [DSS4 C-terminal 12 aa] | 0.6993 ± 0.00084 | 0.726 ± 0.024 |
| KKGPKFKSRKKL [RRP12 C-terminal 12 aa] | 0.748 ± 0.037 | 0.678 ± 0.011 |
| ESPIDAEKNFAR [INA1 C-terminal 12 aa] | 0.693 ± 0.0098 | 0.6821 ± 0.0024 |
| GAALMALLGKWA [ZRT2 C-terminal 12 aa] | 0.725 ± 0.021 | 0.6381 ± 0.0041 |
| VDIRSFRQDMDL [YJR056C C-terminal 12 aa] | 0.703 ± 0.021 | 0.664 ± 0.017 |
| EHYSDGDVCIII [DAL3 C-terminal 12 aa] | 0.68 ± 0.032 | 0.68 ± 0.016 |
| ASSIYIIFDYEN [BUB3 C-terminal 12 aa] | 0.6561 ± 0.0041 | 0.637 ± 0.025 |
| PAAKKVVELTQN [LSC2 C-terminal 12 aa] | 0.685 ± 0.012 | 0.58 ± 0.019 |
| HATTVIDGKIKV [YHI9 C-terminal 12 aa] | 0.693 ± 0.0079 | 0.688 ± 0.039 |
| QYMTSGYASNWN [YAR061W C-terminal 12 aa] | 0.715 ± 0.11 | 0.754 ± 0.096 |
| DSYKLMHSHIHP [IZH1 C-terminal 12 aa] | 0.691 ± 0.01 | 0.6721 ± 0.0056 |
| QNNNILNDMRVN [SPT23 C-terminal 12 aa] | 0.669 ± 0.011 | 0.689 ± 0.039 |
| TEDQFKENGVKK [ICL1 C-terminal 12 aa] | 0.703 ± 0.033 | 0.716 ± 0.065 |
| NLDGQIHYLQRL [GAL7 C-terminal 12 aa] | 0.706 ± 0.012 | 0.761 ± 0.091 |
| ESIEELLRKTLE [ZNG1 C-terminal 12 aa] | 0.687 ± 0.02 | 0.735 ± 0.067 |
| SAQRDRRYRKRN [RPS17B C-terminal 12 aa] | 0.721 ± 0.049 | 0.649 ± 0.018 |
| TEDKNKALESAQ [VPS60 C-terminal 12 aa] | 0.702 ± 0.013 | 0.6706 ± 0.0056 |

| Sequence | protein stability index [1] | protein stability index (genetic background: wild type) |
| --- | --- | --- |
| LNNFKFKTNSKQ [XBP1 C-terminal 12 aa] | 0.713 ± 0.027 | 0.679 ± 0.022 |
| CVKVQQFSVIVL [YDR193W C-terminal 12 aa] | 0.544 ± 0.013 | 0.617 ± 0.011 |
| PEGEAPEAFSMK [SEC14 C-terminal 12 aa] | 0.7068 ± 0.0023 | 0.684 ± 0.036 |
| DTVVRLIDNIVI [PAN6 C-terminal 12 aa] | 0.6896 ± 0.0041 | 0.702 ± 0.07 |
| EVLAADNTRVPC [YLL067C C-terminal 12 aa] | 0.6968 ± 0.0039 | 0.677 ± 0.028 |
| SVFLLNITYLLD [YOR314W C-terminal 12 aa] | 0.236 ± 0.0099 | 0.268 ± 0.018 |
| YAELAERKKQEN [COX9 C-terminal 12 aa] | 0.6916 ± 0.0031 | 0.6914 ± 0.0022 |
| ESIVDFVERHED [IMO32 C-terminal 12 aa] | 0.714 ± 0.017 | 0.691 ± 0.019 |
| KALELILNILEH [SNU56 C-terminal 12 aa] | 0.683 ± 0.033 | 0.667 ± 0.012 |
| KPGTIIHFSTNR [ASK1 C-terminal 12 aa] | 0.71325 ± 0.00059 | 0.691 ± 0.034 |
| KTSNTKVSSRKA [ELO3 C-terminal 12 aa] | 0.6964 ± 0.0051 | 0.673 ± 0.03 |
| FGDCHLENSHLH [SPO75 C-terminal 12 aa] | 0.7041 ± 0.0012 | 0.719 ± 0.017 |
| GLSPIRYFIPQH [YNL114C C-terminal 12 aa] | 0.659 ± 0.017 | 0.6812 ± 0.0052 |
| AQLLLTLNEETS [CAF40 C-terminal 12 aa] | 0.6844 ± 0.0028 | 0.695 ± 0.032 |
| MMAVDTDVDMDA [YPL071C C-terminal 12 aa] | 0.668 ± 0.012 | 0.673 ± 0.014 |
| LMAKRFQTGSLK [RTS3 C-terminal 12 aa] | 0.7028 ± 0.00076 | 0.716 ± 0.043 |
| LNTYVILFYTVY [YOL166W-A C-terminal 12 aa] | 0.273 ± 0.046 | 0.263 ± 0.0054 |
| LSSKKQTVMDKE [POL5 C-terminal 12 aa] | 0.6463 ± 0.0045 | 0.749 ± 0.051 |
| PGLRRQHTRNFL [YMR294W-A C-terminal 12 aa] | 0.697 ± 0.01 | 0.737 ± 0.042 |
| SDEFVDASEYKD [UTP9 C-terminal 12 aa] | 0.7 ± 0.044 | 0.6722 ± 0.0063 |
| FAFSFPITNVLE [YAL016C-B C-terminal 12 aa] | 0.703 ± 0.012 | 0.683 ± 0.049 |

| Sequence | protein stability index [1] | protein stability index (genetic background: wild type) |
| --- | --- | --- |
| IEQYLQTYGASA [URA5 C-terminal 12 aa] | 0.708 ± 0.011 | 0.695 ± 0.014 |
| LIHASSVEQATA [MRPL4 C-terminal 12 aa] | 0.68 ± 0.016 | 0.6986 ± 0.0057 |
| VTFLVFANLRLW [YBR223W-A C-terminal 12 aa] | 0.566 ± 0.013 | 0.575 ± 0.027 |
| YDENSKPKGTKE [FUN30 C-terminal 12 aa] | 0.6948 ± 0.0051 | 0.704 ± 0.016 |
| GLSIDTRSAYFV [YPL251W C-terminal 12 aa] | 0.725 ± 0.019 | 0.68 ± 0.026 |
| ALPLPDEDDADL [GSP1 C-terminal 12 aa] | 0.673 ± 0.02 | 0.715 ± 0.011 |
| WTALVVNILGRF [CWH41 C-terminal 12 aa] | 0.634 ± 0.012 | 0.634 ± 0.011 |
| YNLKNDILTNLE [SWI1 C-terminal 12 aa] | 0.73 ± 0.021 | 0.651 ± 0.044 |
| MIDELDYNINFA [UGA3 C-terminal 12 aa] | 0.7 ± 0.013 | 0.791 ± 0.076 |
| SKTSHNPNEQSV [PDR11 C-terminal 12 aa] | 0.6953 ± 0.0037 | 0.687 ± 0.025 |
| RAVTNRSSCSRR [YCR038W-A C-terminal 12 aa] | 0.697 ± 0.011 | 0.689 ± 0.0074 |
| VILMVDFTLVGP [YDR262W C-terminal 12 aa] | 0.429 ± 0.023 | 0.426 ± 0.0078 |
| KCQTKHTFTGLI [YGR269W C-terminal 12 aa] | 0.695 ± 0.0072 | 0.723 ± 0.021 |
| SFRLTKRQTDND [POS5 C-terminal 12 aa] | 0.7021 ± 0.0053 | 0.709 ± 0.033 |
| RSNEEMYSWSRN [SPO74 C-terminal 12 aa] | 0.698 ± 0.039 | 0.692 ± 0.0082 |
| KARLTEEQHRHE [CWC21 C-terminal 12 aa] | 0.705 ± 0.0052 | 0.697 ± 0.019 |
| RNNEHSHKKYNQ [YER090C-A C-terminal 12 aa] | 0.711 ± 0.0081 | 0.729 ± 0.092 |
| HSDSADTHTHKH [MMT2 C-terminal 12 aa] | 0.693 ± 0.025 | 0.696 ± 0.029 |
| GNNGNNNNTTNL [PET123 C-terminal 12 aa] | 0.672 ± 0.008 | 0.669 ± 0.0096 |
| QRVIKPSSALQF [ECM7 C-terminal 12 aa] | 0.706 ± 0.01 | 0.682 ± 0.035 |
| RHELQALQAEIN [END3 C-terminal 12 aa] | 0.715 ± 0.018 | 0.614 ± 0.018 |

| Sequence | protein stability index [1] | protein stability index (genetic background: wild type) |
| --- | --- | --- |
| NNDILQNKKLHQ [KIP1 C-terminal 12 aa] | 0.686 ± 0.034 | 0.712 ± 0.053 |
| IKMIKELGNHRL [RMD6 C-terminal 12 aa] | 0.684 ± 0.0078 | 0.646 ± 0.026 |
| LKTTPCLTHWYN [YIR030W-A C-terminal 12 aa] | 0.699 ± 0.022 | 0.663 ± 0.033 |
| FDSEHFYSPVQT [PRP3 C-terminal 12 aa] | 0.7065 ± 0.0023 | 0.71 ± 0.024 |
| IASQNSLGWNEV [MSB2 C-terminal 12 aa] | 0.69667 ± 0.00047 | 0.693 ± 0.024 |
| FNISDYFSDIHE [ORC5 C-terminal 12 aa] | 0.744 ± 0.02 | 0.7 ± 0.023 |
| NGWHELALPQSR [SWM1 C-terminal 12 aa] | 0.74 ± 0.0028 | 0.705 ± 0.021 |
| GRPEQAPECKQS [NAP1 C-terminal 12 aa] | 0.688 ± 0.0078 | 0.648 ± 0.011 |
| RGENGQFWIGTK [BNI5 C-terminal 12 aa] | 0.744 ± 0.027 | 0.702 ± 0.03 |
| EREKVDIHIPQV [BEM3 C-terminal 12 aa] | 0.711 ± 0.02 | 0.701 ± 0.011 |
| KQLDLKHMLEMH [MRPL44 C-terminal 12 aa] | 0.7 ± 0.0085 | 0.6897 ± 0.0057 |
| NKDTMQLFRAYL [CIN2 C-terminal 12 aa] | 0.7695 ± 0.0014 | 0.834 ± 0.04 |
| KFPLSVKKKIRI [YNR075C-A C-terminal 12 aa] | 0.6821 ± 0.0027 | 0.697 ± 0.066 |
| NEEMAEISNPFR [FEN2 C-terminal 12 aa] | 0.699 ± 0.019 | 0.711 ± 0.026 |
| RVYTEQNVPVVS [YNL194C C-terminal 12 aa] | 0.6679 ± 0.0046 | 0.684 ± 0.039 |
| LYWDPSWITRQL [SNF8 C-terminal 12 aa] | 0.716 ± 0.019 | 0.621 ± 0.043 |
| MNAAENEVKKEK [SUR2 C-terminal 12 aa] | 0.688 ± 0.016 | 0.669 ± 0.027 |
| DRLKRRNNDYGF [MSO1 C-terminal 12 aa] | 0.695 ± 0.014 | 0.738 ± 0.054 |
| LEKQEDYIDNLV [RPC37 C-terminal 12 aa] | 0.697 ± 0.02 | 0.73 ± 0.056 |
